The text below walks through data of patent US20080280358A1 (University of California, published 2008).

The target in the experiment is Purified rabbit muscle actin (Cytoskeleton Inc.) (rabbit, UniProt P68135 3-377). The experiment in a line: cell-based or functional assay.

On to GIVRKWISRFEVWPYL [SS12 active synthetic peptide], for which the “bundling activity at 1:1 molar ratio to actin” value is 1 molar ratio peptide:actin; the “bundling activity at molar ratio 100:1” value was 100 molar ratio peptide:actin; the “bundling activity at molar ratio peptide:actin = 1:1” value is 1 molar ratio peptide:actin; the “bundling activity at molar ratio to actin of 10 and 50” value was 50 molar ratio peptide:actin. Further, the “effective peptide to actin ratio for bundling” value is 1 molar ratio peptide:actin.
Consider GIVRKAISRFEVAPYL [SS15 less active synthetic peptide], for which the “bundling activity at molar ratio 10:1 and 100:1” value was 10 molar ratio peptide:actin; the “bundling activity at molar ratio peptide:actin = 1:1” value was 1 molar ratio peptide:actin; the “effective peptide to actin ratio for bundling” value is ~16 molar ratio peptide:actin.
Regarding GIVRKWISRFEVWPYLKK [SS2 active peptide (SuSy 377-392)], the “bundling activity at 1:1 molar ratio to actin” value is 1 molar ratio peptide:actin, the “bundling activity at molar ratio peptide:actin = 1:1” value is 1 molar ratio peptide:actin, the “bundling when the peptide is present during polymerization” value was 2 molar ratio peptide:actin and the “effective peptide to actin ratio for bundling” value is 1 molar ratio peptide:actin. Further, the “molar ratio of peptide to actin giving half-bundled and half-F-actin (co-polymerization, centrifugation, SDS-PAGE)” value was 0.5 molar ratio peptide:actin; the “molar ratio of peptide:actin to bundle all the F-actin during polymerization” value is 1 molar ratio peptide:actin.
